For the experiment, the target named is MnSOD-3[Q142H], site-directed mutant of the manganese superoxide dismutase SOD-3 of C. elegans (C. elegans) (UniProt P41977). The experiment in a line: crystal structure.

By stoichiometry N is commonly meant a count of units in the complex or per binding partner. “MnSOD-3[Q142H], site-directed mutant of the manganese superoxide dismutase SOD-3 of C. elegans (from UniProt P41977 25-218) (enzyme)” yielded a stoichiometry N of 4.

(Values after paper PMC5969255.)
